In PMC12496174:

Target: BASP1 (brain acid soluble protein 1, CAP23, NAP22) (UniProt Q91XV3)
Test: peptide affinity column, brain lysate, LC-MS/MS
Details: reference: non-phospho peptide …; sites S351

**Q.** Which “binding against the reference” value does the source give for “PLPPR3 (phospholipid-phosphatase-related protein 3) (from UniProt Q7TPB0) pS351 peptide LKRApSVDVDLLA” here?
**A.** The value was “stronger”.
